Tests used:
[1] = target: T1, monkey TIM-3 on CHOK1 stable cell line (CHOK1-cTIM-3) (monkey); assay: FACS, CHOK1-cTIM-3 cells, 40 nM antibody
T1 chain: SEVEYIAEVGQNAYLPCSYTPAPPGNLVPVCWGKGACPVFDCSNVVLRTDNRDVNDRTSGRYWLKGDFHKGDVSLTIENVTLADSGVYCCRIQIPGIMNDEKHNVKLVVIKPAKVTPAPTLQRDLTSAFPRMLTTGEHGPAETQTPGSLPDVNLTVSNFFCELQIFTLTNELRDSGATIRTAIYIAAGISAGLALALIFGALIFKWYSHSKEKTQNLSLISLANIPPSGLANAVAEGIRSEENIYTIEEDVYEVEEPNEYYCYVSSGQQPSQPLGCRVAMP
Excerpt: (§1) The pIRES plasmid containing the full-length nucleotide sequence encoding human TIM-3 as described in Example 1 was transfected into CHOK1 cell line to obtain a CHOK1 stable cell line containing human TIM-3 (herein referred to as CHOK1-hTIM-3 stable cell line). The pIRES plasmid containing the full-length gene of monkey TIM-3 was transfected into CHOK1 cell line to construct a CHOK1 stable cell line containing monkey TIM-3 (herein referred to as CHOK1-cTIM-3 stable cell line). The CHOK1-hTIM-3 stable cell line and CHOK1-cTIM-3 stable cell line were expanded to a confluence of 90% in a T-75 cell culture flask. The medium was aspirated, and the cells were washed with HBSS (Hanks' Balanced Salt Solution) 1-2 times, and then treated with an enzyme-free cell dissociation solution (Versene solution: Life technology) and the cells were collected. The cells were washed with HBSS buffer for 1-2 times. After counted, the cells were diluted with HBSS to 1-2×10⁶ cells per ml, added with 1% goat serum blocking solution, incubated on ice for 20-30 minutes, and then washed with HBSS by centrifugation 2 times. The collected cells were suspended in the FACS buffer (HBSS+1% BSA) to 2×10⁶ cells/ml, added as 100 microliters per well to a 96-well FACS reaction plate, added with 100 microliters per well of the antibody sample to be tested, incubated on ice for 1-2 hours. The plate was washed twice with the FACS buffer by centrifugation, added with 100 microliters of fluorescent (Alexa 488)-labeled secondary antibodies per well, and incubated on ice for 0.5-1.0 hours. The plate was washed 2-3 times with FACS buffer by centrifugation, added with 100 μl fixative solution (4% Paraformaldehyde) per well to suspend the cells. 5-10 minutes later, it was washed 1-2 times with FACS buffer by centrifugation. The cells were suspended with 100 microliters of FACS buffer, FACS (FACSCalibur, BD) was used for detection and the results were analyzed. The results are shown in FIGS. 7 and 8, Tables 7 and 8, wherein the IgG control is rat IgG, and the data in the table are the average fluorescence intensity values of the cell populations measured by MFI.

[2] = target: T1, monkey TIM-3 on CHOK1 stable cell line …; assay: FACS, CHOK1-cTIM-3 cells, 1.6 nM antibody
Excerpt: as §1

[3] = target: T1, monkey TIM-3 on CHOK1 stable cell line …; assay: FACS, CHOK1-cTIM-3 cells, 0 nM antibody
Excerpt: as §1

[4] = target: T1, monkey TIM-3 on CHOK1 stable cell line …; assay: FACS, CHOK1-cTIM-3 cells, 0.013 nM antibody
Excerpt: as §1

[5] = target: T2, TIM-3 protein on human peripheral blood mononuclear lymphocytes (PBMC) (human, UniProt Q8TDQ0 22-301); assay: cell-based or functional assay
T2 sequence: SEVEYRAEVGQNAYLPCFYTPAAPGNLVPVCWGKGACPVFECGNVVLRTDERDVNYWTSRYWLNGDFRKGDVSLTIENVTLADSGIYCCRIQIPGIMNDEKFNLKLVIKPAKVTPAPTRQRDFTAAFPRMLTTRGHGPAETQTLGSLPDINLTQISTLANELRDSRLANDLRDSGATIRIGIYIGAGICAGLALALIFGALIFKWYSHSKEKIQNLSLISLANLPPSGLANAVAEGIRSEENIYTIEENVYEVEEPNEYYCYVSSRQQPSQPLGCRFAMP

[6] = target: T1, monkey TIM-3 on CHOK1 stable cell line …; assay: FACS, CHOK1-cTIM-3 cells, 200 nM antibody
Excerpt: as §1

[7] = target: T1, monkey TIM-3 on CHOK1 stable cell line …; assay: FACS, CHOK1-cTIM-3 cells, 0.32 nM antibody
Excerpt: as §1

[8] = target: T1, monkey TIM-3 on CHOK1 stable cell line …; assay: FACS, CHOK1-cTIM-3 cells, 0.064 nM antibody
Excerpt: as §1

[9] = target: T1, monkey TIM-3 on CHOK1 stable cell line …; assay: FACS, CHOK1-cTIM-3 cells, 8 nM antibody
Excerpt: as §1

[10] = target: T3, murine TIM-3 protein with hFc tag (mTIM-3-hFc protein) (mouse; human, UniProt Q8VIM0 29-191); assay: ELISA, coated mTIM-3-hFc
T3 construct: Made in HEK293 cells; also called mouse TIM-3 extracellular domain protein; not shown: human IgG Fc fragment (hFc) of the pCpC vector
T3 chain: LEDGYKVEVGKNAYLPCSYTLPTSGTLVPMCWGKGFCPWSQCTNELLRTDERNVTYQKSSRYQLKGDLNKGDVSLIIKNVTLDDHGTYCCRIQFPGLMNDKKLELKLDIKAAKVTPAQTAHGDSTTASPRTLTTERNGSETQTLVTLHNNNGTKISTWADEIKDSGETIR

Binder	Mean fluorescence intensity [1]	Mean fluorescence intensity [2]	Mean fluorescence intensity [3]	Mean fluorescence intensity [4]	Mean fluorescence intensity [6]	Mean fluorescence intensity [7]	Mean fluorescence intensity [8]	Mean fluorescence intensity [9]	binding result [10]	other results
7A4F10 TIM-3 antibody purified from hybridoma supernatant (chimeric antibody of Example 2) (antibody, V domains shown) VH: EVQLLESGGGLVQPGGSLRLSCAASGFTFRTHLISWVRQAPGKGLEWVAAITGSGGSTYYADSVKGRFIISRDNSKNTLFLQMNSLRAEDTAVYYCAKDGGSGSYDDFWGQGTLVTVSS VL: ETVLTQSPVTLSLSPGERATLSCRASQSVGSYLAWYQQKPGQAPRLLIYDASNRATGIPARFSGSGSGTDFTLTISSLEPEDFAVYYCQQRSNWPPTFGQGTKVEIK	163	29.1	3.2	4.1	147	11.3	5.9	90		IFN production; antibody 0.001 µg/ml (4th head as printed), N = 1 [5]: 672 pg/mL; IFN production; antibody 0.001 µg/ml (4th head as printed), N = 2 [5]: 719 pg/mL; IFN production; antibody 0.001 µg/ml (5th head as printed), N = 1 [5]: 666 pg/mL; IFN production; antibody 0.001 µg/ml (5th head as printed), N = 2 [5]: 756 pg/mL; IFN production; antibody 0.1 µg/ml, N = 1 [5]: 758 pg/mL; IFN production; antibody 0.1 µg/ml, N = 2 [5]: 873 pg/mL; IFN production; antibody 1 µg/ml, N = 1 [5]: 1010 pg/mL; IFN production; antibody 1 µg/ml, N = 2 [5]: 1160 pg/mL; IFN production; antibody 10 µg/ml, N = 1 [5]: 848 pg/mL; IFN production; antibody 10 µg/ml, N = 2 [5]: 1010 pg/mL
215A8F2 TIM-3 antibody purified from hybridoma supernatant (chimeric antibody of Example 2) (antibody, V domains shown) VH: QVQLQQWGAGLLKPSETLSLTCTVYGGSFSGYYWNWIRQPPGKGLEWLGEINHSGSTNYNPSLKRRVTISVDTSKNQFSLKLSSVTAADTAVYYCARVYYYGPFDFWGQGTLVTVSS VL: not shown	976	330	3.2	13.6	961	108	34.7	733		IFN production; antibody 0.001 µg/ml (4th head as printed), N = 1 [5]: 782 pg/mL; IFN production; antibody 0.001 µg/ml (4th head as printed), N = 2 [5]: 753 pg/mL; IFN production; antibody 0.001 µg/ml (5th head as printed), N = 1 [5]: 791 pg/mL; IFN production; antibody 0.001 µg/ml (5th head as printed), N = 2 [5]: 741 pg/mL; IFN production; antibody 0.1 µg/ml, N = 1 [5]: 840 pg/mL; IFN production; antibody 0.1 µg/ml, N = 2 [5]: 901 pg/mL; IFN production; antibody 1 µg/ml, N = 1 [5]: 1020 pg/mL; IFN production; antibody 1 µg/ml, N = 2 [5]: 1070 pg/mL; IFN production; antibody 10 µg/ml, N = 1 [5]: 943 pg/mL; IFN production; antibody 10 µg/ml, N = 2 [5]: 1070 pg/mL
18D2H2 TIM-3 antibody purified from hybridoma supernatant (chimeric antibody of Example 2) (antibody, V domains shown) VH: EVQLVESGGDLVQPGGSLRLSCAASGFTFSTYWMTWVRQAPGRGLEWVANIKQDGSAKYYVDSVKGRFTLSRDDAKNSLYLQMNSLRAEDTAVYYCARGSNWFDYWGQGTLVTVSS VL: ETVMTQSPATLSVSPGERATLSCRANQNVYSNLAWYQQKPGQAPRLLIYDASTRATGFPARFSGSGSGTEFTLTISSLQSEDFAVYYCQQYNNWPLTFGGGTKVEIK	186	35.8	3.2	4.3	203	14.4	6.9	92.2		
57F4E5 TIM-3 antibody purified from hybridoma supernatant (chimeric antibody of Example 2) (antibody, V domains shown) VH: EVQLVESGGGLVQPGGSLRLSCAASGFTFSSYWMSWVRQAPGKGLEWVANIKQDGSEKYYVDSVKGRFTISRDSAKNSLYLQMNSLRAEDTAMYFCARDSNFFDYWGQGTLVTVSS VL: ETVMTQSPATLSVSPGERATLSCRASQSVSSNLAWYQRKPGQAPRLLIYFSSTRATGIPARFSGSGSGTEFTLTISSLQSEDFAVYYCQQYNNWPLTFGGGTKVEIK	699	460	3.2	22.2	675	185	59.6	704		
39E5H1 fully human TIM-3 antibody (human IgG4, kappa) (antibody, V domains shown) VH: EVQLVESGGGLVQPGGSLRLSCAASGFTFSSYWMSWVRQAPGKGLEWVANIKRGGSERYYVDSVKGRFTISGDNAKNSVYLQMNSLRAEDTAVYYCARGSNWFDPWGQGTLVTVSS VL: ETVMTQSPAILSVSPGERATLSCRASQSVYSNLAWYQQKLGQAPRLLIYDASTRATGIPARFSGSGSGTEFTLTISSLQSEDFAVYYCQQYNNWPITFGQGTRLEIK									no binding (tested: 66.667 nM)	
57F4E5 fully human TIM-3 antibody (human IgG4, kappa) (antibody, V domains shown) VH: EVQLVESGGGLVQPGGSLRLSCAASGFTFSSYWMSWVRQAPGKGLEWVANIKQDGSEKYYVDSVKGRFTISRDSAKNSLYLQMNSLRAEDTAMYFCARDSNFFDYWGQGTLVTVSS VL: ETVMTQSPATLSVSPGERATLSCRASQSVSSNLAWYQRKPGQAPRLLIYFSSTRATGIPARFSGSGSGTEFTLTISSLQSEDFAVYYCQQYNNWPLTFGGGTKVEIK									no binding (tested: 66.667 nM)	
134H3G6 fully human TIM-3 antibody (human IgG4, kappa) (antibody, V domains shown) VH: EVQLVESGGGLVQPGGSLRLSCAASGFTFSNSWMTWVRQAPGKGLEWVANIKQAGTEKYYVDSVKGRFTISRDNAKNSLYLQMNSLRAEDTAVYYCNSGSNYFDYWGQGTLVTVSS VL: EIVMTQSPATLSVSPGERATLSCRARQNFYSNLAWYQQKPGQAPRLLIYGASTRATGIPARFSGSGSGTEFTLTISSLQSEDFAVYYCQQYNNWPLTFGGGTKVEIK									no binding (tested: 66.667 nM)	
215A8F2 fully human TIM-3 antibody (human IgG4, kappa) (antibody, V domains shown) VH: QVQLQQWGAGLLKPSETLSLTCTVYGGSFSGYYWNWIRQPPGKGLEWLGEINHSGSTNYNPSLKRRVTISVDTSKNQFSLKLSSVTAADTAVYYCARVYYYGPFDFWGQGTLVTVSS VL: not shown									no binding (tested: 66.667 nM)	
7A4F10 fully human TIM-3 antibody (human IgG4, kappa) (antibody, V domains shown) VH: EVQLLESGGGLVQPGGSLRLSCAASGFTFRTHLISWVRQAPGKGLEWVAAITGSGGSTYYADSVKGRFIISRDNSKNTLFLQMNSLRAEDTAVYYCAKDGGSGSYDDFWGQGTLVTVSS VL: ETVLTQSPVTLSLSPGERATLSCRASQSVGSYLAWYQQKPGQAPRLLIYDASNRATGIPARFSGSGSGTDFTLTISSLEPEDFAVYYCQQRSNWPPTFGQGTKVEIK									no binding (tested: 66.667 nM)	
18D2H2 fully human TIM-3 antibody (human IgG4, kappa) (antibody, V domains shown) VH: EVQLVESGGDLVQPGGSLRLSCAASGFTFSTYWMTWVRQAPGRGLEWVANIKQDGSAKYYVDSVKGRFTLSRDDAKNSLYLQMNSLRAEDTAVYYCARGSNWFDYWGQGTLVTVSS VL: ETVMTQSPATLSVSPGERATLSCRANQNVYSNLAWYQQKPGQAPRLLIYDASTRATGFPARFSGSGSGTEFTLTISSLQSEDFAVYYCQQYNNWPLTFGGGTKVEIK									no binding (tested: 66.667 nM)	
